# In patent US20120114590A1 (priority 2005, published 2012):
# Read-outs that look alike come from different tables or passages of the source.
# B1: IL-29: human IL-29 cytokine polypeptide (zcyto21), e.g. SEQ ID NO:20 (protein, listed as Homo sapiens)
# chain: MAAAWTVVLVTLVLGLAVAGPVPTSKPTTTGKGCHIGRFKSLSPQELASFKKARDALEESLKLKNWSCSSPVFPGNWDLRLLQVRERPVALEAELALTLKVLEAAAGPALEDVLDQPLHTLHHILSQLQACIQPQPTAGPRPRGRLHHWLHRLQEAPKKESAGCLEASVTFNLFRLLTRDLKYVADGNLCLRTSTHPEST
# modifications: SIGNAL (1)...(19)
# How the values were obtained:
# [1] = system: Respiratory syncytial virus; assay type: cell-based
# Coxsackie B4 virus = assay type: cell-based; conditions: KB cells, Neutral Red Assay
# [2] = system: Respiratory syncytial virus; assay type: cell-based; conditions: MA-104 cells, Neutral Red Assay
# [3] = system: Influenza (type A [H3N2]); assay type: cell-based; conditions: Vero
# adenoviral vector AdGFP = test: Adenoviral vector (AdGFP) liver pathology model in C57Bl/6 mice; conditions: AdGFP-infected C57Bl/6 mice, 50 μg i.p., 7 doses
# [4] = system: Influenza (type A [H3N2]); assay type: cell-based; conditions: Vero cells, Neutral Red Assay
# Parainfluenza virus [5] = assay type: cell-based; conditions: MA-104 cells, Neutral Red Assay
# Rhino 2 = assay type: cell-based, rhino virus; conditions: Rhino 2, KB cells, Neutral Red Assay
# Vaccinia virus = assay type: cell-based; conditions: Vero
# Polio virus [6] = assay type: cell-based; conditions: Vero cells, Neutral Red Assay
# Pichinde virus [7] = assay type: cell-based
# [8] = system: Venezuelan equine encephalitis virus; assay type: cell-based; conditions: Vero cells, Neutral Red Assay
# Adenovirus = assay type: cell-based
# Dengue virus = assay type: cell-based; conditions: Vero
# BVDV = BVDV inhibition of cytopathic effect assay in MDBK cells; assay type: cell-based, bovine viral diarrhea virus; conditions: MDBK bovine kidney cells, day 7
# Description: The MDBK cells were propagated in Dulbecco's modified essential medium (DMEM) containing phenol red with 10% horse serum, 1% glutamine and 1% penicillin-streptomycin. CPE inhibition assays were performed in DMEM without phenol red with 2% FBS, 1% glutamine and 1% Pen-Strep. On the day preceding the assays, cells were trypsinized (1% trypsin-EDTA), washed, counted and plated out at 10^4 cells/well in a 96-well flat-bottom BioCoat® plates (Fisher Scientific, Pittsburgh, Pa.) in a volume of 100 μl/well. The next day, the medium was removed and a pre-titered aliquot of virus was added to the cells. The amount of virus was the maximum dilution that would yield complete cell killing (>80%) at the time of maximal CPE development (day 7 for BVDV). Cell viability was determined using a CellTiter96® reagent (Promega) according to the manufacturer's protocol, using a Vmax plate reader (Molecular Devices, Sunnyvale, Calif.). Test samples were tested at six concentrations each, diluted in assay medium in a half-log series. IFNα and RIBAVIRIN® were used as positive controls. Test sample were added at the time of viral infection. The average background and sample color-corrected data for percent CPE reduction and percent cell viability at each concentration were determined relative to controls and the IC50 calculated relative to the TC50.
# [9] = system: Venezuelan equine encephalitis virus; assay type: cell-based; conditions: Vero
# Polio virus [10] = assay type: cell-based; conditions: Vero
# [11] = system: Influenza (type A [H3N2]); assay type: cell-based; conditions: Maden-Darby Canine Kidney
# OAS = OAS activity in serum and plasma of mice (OAS radioimmunoassay); assay type: in vivo, mouse; conditions: C57BL/6 mice
# Description: Serum and plasma were isolated from mice at varying time points, and OAS activity was measured using the OAS radioimmunoassay (RIA) kit from Eiken Chemicals (Tokyo, Japan).
# West Nile virus = assay type: cell-based; conditions: Vero
# HHV-8 = HHV-8 replication in BCBL-1 cells (TaqMan PCR extracellular HHV-8 DNA; dye uptake TC50); assay type: cell-based, human herpesvirus-8
# Description: The therapeutic index (TI) is calculated as TC50/IC50.
# Pichinde virus [12] = assay type: cell-based; remark: listed apart in the source
# Parainfluenza virus [13] = assay type: cell-based
# [14] = system: human marrow mononuclear cells
# [15] = system: spleens of transgenic mice; test: ISG expression in spleens of Eu-lck human IL-29 transgenic mice (real-time PCR); assay type: in vivo, mouse; conditions: spleens of Eu-lck IL-29 transgenic mice; fold expression relative to HPRT; average of two mice
# Description: This promoter is active in T cells and B cells. Transgenic mice and their non-transgenic littermates (n=2/gp) were sacrificed at about 10 weeks of age. Spleens of mice were isolated. RNA was isolated from cell pellets using RNAEasy-kit® (Qiagen). RNA was treated with DNase to clean RNA of any contaminating DNA. cDNA was generated using Perkin-Elmer RT® mix. ISG gene induction was evaluated by real-time PCR using primers and probes (5′ FAM, 3′ NFQ) specific for mouse OAS, Pkr and Mx1. To obtain quantitative data, HPRT real-time PCR was duplexed with ISG PCR. Furthermore, a standard curve was obtained using known amounts of IFN stimulated mouse PBLs. All data are shown as expression relative to internal HPRT expression.
molecule,measurement,setting,value
B1,EC50 Visual,[1]; MA-104,>10 µg/mL
same,IC50 Visual,"[1]; MA-104, numerator of SI",>10 µg/mL
same,EC50 NR,Coxsackie B4 virus,>10 µg/mL
same,IC50 NR,Coxsackie B4 virus,>10 µg/mL
same,EC50 NR,[2],>10 µg/mL
same,IC50 NR,[2],>10 µg/mL
same,EC50 Visual,[3],>10 µg/mL
same,IC50 Visual,[3]; numerator of SI,>10 µg/mL
same,liver histology: cellular changes versus PBS treatment group,adenoviral vector AdGFP,"less proliferation of sinusoidal cells, fewer mitotic figures and fewer changes in the hepatocytes"
same,liver histology: liver and inflammation scores versus PBS-treated group,adenoviral vector AdGFP,lower liver and inflammation scores
same,average serum AST,adenoviral vector AdGFP; n=8,162 U/L
same,serum ALT,adenoviral vector AdGFP; n=8,184 U/L
same,EC50 NR,[4],2 µg/mL
same,IC50 NR,[4],>10 µg/mL
same,EC50 NR,Parainfluenza virus [5],>10 µg/mL
same,IC50 NR,Parainfluenza virus [5],>10 µg/mL
same,EC50 NR,Rhino 2,>10 µg/mL
same,IC50 NR,Rhino 2,>10 µg/mL
same,EC50 Visual,Vaccinia virus,>10 µg/mL
same,IC50 Visual,Vaccinia virus; numerator of SI,>10 µg/mL
same,EC50 NR,Polio virus [6],>10 µg/mL
same,IC50 NR,Polio virus [6],>10 µg/mL
same,EC50 Visual,Pichinde virus [7],>10 µg/mL
same,IC50 Visual,Pichinde virus [7],>10 µg/mL
same,EC50 NR,[8],0.05 µg/mL
same,IC50 NR,[8],>10 µg/mL
same,EC50 Visual,Adenovirus; A549,>10 µg/mL
same,IC50 Visual,"Adenovirus; A549, numerator of SI",>10 µg/mL
same,EC50 Visual,Dengue virus,0.032 µg/mL
same,IC50 Visual,Dengue virus; numerator of SI,>10 µg/mL
same,IC50 (inhibition of cell death induced by BVDV),BVDV,0.19 µg/mL
same,EC50 Visual,[9],0.012 µg/mL
same,IC50 Visual,[9]; numerator of SI,>10 µg/mL
same,EC50 Visual,Polio virus [10],>10 µg/mL
same,IC50 Visual,Polio virus [10]; numerator of SI,>10 µg/mL
same,EC50 Visual,[11],>10 µg/mL
same,IC50 Visual,[11]; numerator of SI,>10 µg/mL
same,OAS activity in the serum and plasma of mice,"OAS; i.v, 10 μg-250 μg",induced OAS activity
same,OAS-1 hr (OAS activity),"OAS; plasma, 1 hr, 250 μg i.v.",80 pmol/dL of plasma
same,OAS-6 hr (OAS activity),"OAS; plasma, 6 hr, 250 μg i.v.",80 pmol/dL of plasma
same,OAS-24 hr (OAS activity),"OAS; plasma, 24 hr, 250 μg i.v.",180 pmol/dL of plasma
same,OAS-48 hr (OAS activity),"OAS; plasma, 48 hr, 250 μg i.v.",200 pmol/dL of plasma
same,EC50 Visual,West Nile virus,0.032 ng/mL
same,IC50 Visual,West Nile virus; numerator of SI,>10 µg/mL
same,TI (TC50/IC50),HHV-8,> 1.85
same,IC50 (extracellular HHV-8 DNA),HHV-8; six days,6.5 µg/mL
same,EC50 NR,Pichinde virus [12],>10 µg/mL
same,IC50 NR,Pichinde virus [12],>10 µg/mL
same,EC50 Visual,Parainfluenza virus [13]; MA-104,>10 µg/mL
same,IC50 Visual,"Parainfluenza virus [13]; MA-104, numerator of SI",>10 µg/mL
same,bone marrow cell expansion,[14]; in the presence of IL-2 or IL-15,small inhibition
same,expansion of bone marrow cells,"[14]; in the presence of IL-3, IL-4, IL-5, IL-7, IL-10, IL-12, IL-21 or no added cytokine",no significant effect
same,Mx1,[15],21
same,OAS,[15],12
same,PkR,[15],8
